Data published in the supplement of paper PMC7877785.
± gives the uncertainty stated by the source.

Assay: self-splicing fitness, log relative to wild type (ln ratio); higher = more splicing; Tetrahymena group I intron in knt gene, E. coli kanamycin selection, DiMSum; sequences stand for … in CUCUCU…GGAGGGAAAAGUUAUCAGGCAUGCACCUGGUAGCUAGUCUUUAAACCAAUAGAUUGCAUCGGUUUAAAAGGCAAGACCGUCAAAUUGCGGGAAAGGGGUCAACAGCCGUUCAGUACCAAGUCUCAGGGGAAACUUUGAGAUGGCCUUGCAAAGGGUAUGGUAAUAAGCUGACGGACAUGGUCCUAACCACGCAGCCAAGUCCUAAGUCAACAGAUCUUCUGUUGAUAUGGAUGCAGUUCACAGACUAAAUGUCGGUCGGGGAAGAUGUAUUCUUCUCAUAAGAUAUAGUCGGACCUCUCCUUAAUGGGAGCUAGCGGAUGAAGUGAUGCAACACUGGAGCCGCUGGGAACUAAUUUGUAUGCGAAAGUAUAUUGAUUAGUUUUGGAGUACUCGUGGUCG
Method in brief: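 Pooled colonies went to amplicon sequencing on an Illumina HiSeq 2500 after six replicate transformations. The plates were LB agar with 100 μg/mL carbenicillin, 50 μM IPTG and 0.2% rhamnose, with or without 25 μg/mL kanamycin, incubated overnight at 37°C or 30°C. The E. coli BL21(DE3) library had all eight P1ex-region intron nucleotides randomised, the intron placed in the knt kanamycin-resistance gene on pET-22b(+). DiMSum fitness is the error-weighted combination of replicate fold changes, kanamycin against none, normalised to wild type.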

| Sequence | self-splicing fitness (ln) (30 °C) | self-splicing fitness (ln) (37 °C) |
| --- | --- | --- |
| UAGCAGCAAUAUUACGGCUC | -0.698 ± 0.094 | -0.839 ± 0.12 |
| GCGAAGCAAUAUUACGCACA | -1.08 ± 0.13 | -0.906 ± 0.14 |
| UUCCAGCAAUAUUACGCCGA | -0.126 ± 0.13 | 0.309 ± 0.16 |
| CGACAGCAAUAUUACGUAUU | -3.09 ± 0.14 | -2.53 ± 0.16 |
| AGUUAGCAAUAUUACGCUCC | -1.45 ± 0.45 | -1.02 ± 0.33 |
| AUUAAGCAAUAUUACGCUGG | -1.25 ± 0.12 | -1.39 ± 0.22 |
| GGAUAGCAAUAUUACGUCAU | -2.02 ± 0.11 | -0.395 ± 0.12 |
| CACGAGCAAUAUUACGAUAG | -3.14 ± 0.15 | -1.6 ± 0.18 |
| GGGGAGCAAUAUUACGUCAU | – | -2.07 ± 0.39 |
| GUAGAGCAAUAUUACGGGUG | -2.72 ± 0.22 | -2.93 ± 0.28 |
| AUGCAGCAAUAUUACGAACG | -1.7 ± 0.16 | -0.0769 ± 0.12 |
| CUCUAGCAAUAUUACGUUUA | -3.48 ± 0.25 | -3.07 ± 0.29 |
| UCUGAGCAAUAUUACGGAGC | -2.77 ± 0.21 | -2.92 ± 0.2 |
| GAGUAGCAAUAUUACGAUAG | -3.53 ± 0.26 | -2.61 ± 0.28 |
| AUCUAGCAAUAUUACGUCAG | -3.18 ± 0.2 | -2.34 ± 0.2 |
| UGAAAGCAAUAUUACGACGA | -0.661 ± 0.12 | -0.101 ± 0.12 |
| ACGGAGCAAUAUUACGUUCG | -1.33 ± 0.097 | -0.333 ± 0.13 |
| CAGGAGCAAUAUUACGUGGG | -2.85 ± 0.18 | -2.31 ± 0.15 |
| CCACAGCAAUAUUACGUACA | -2.84 ± 0.19 | -2.96 ± 0.34 |
| AUUAAGCAAUAUUACGUCAA | -2.1 ± 0.22 | -0.766 ± 0.16 |
| ACUCAGCAAUAUUACGCAAU | -1.37 ± 0.078 | -0.643 ± 0.093 |
| ACAGAGCAAUAUUACGAAGC | -2.69 ± 0.26 | – |
| GGCGAGCAAUAUUACGUGUG | -1.13 ± 0.1 | -0.745 ± 0.14 |
| AGUCAGCAAUAUUACGGACA | 0.233 ± 0.078 | 0.157 ± 0.087 |
| UCCGAGCAAUAUUACGGGUU | -3.41 ± 0.14 | -1.9 ± 0.15 |
| CACAAGCAAUAUUACGGAAU | -4.1 ± 0.21 | -2.28 ± 0.16 |

| Sequence | self-splicing fitness (ln) (30 °C) | self-splicing fitness (ln) (37 °C) |
| --- | --- | --- |
| UCGAAGCAAUAUUACGACGG | -1.8 ± 0.17 | -0.892 ± 0.18 |
| UGCCAGCAAUAUUACGCAGC | – | -2.15 ± 0.42 |
| AUGAAGCAAUAUUACGAAAU | -0.819 ± 0.07 | -0.46 ± 0.073 |
| GCUCAGCAAUAUUACGUCUC | -0.67 ± 0.12 | -0.754 ± 0.1 |
| AUGCAGCAAUAUUACGGUCC | -1.85 ± 0.16 | -0.88 ± 0.17 |
| CCUGAGCAAUAUUACGGAUG | -1.52 ± 0.057 | -1.31 ± 0.078 |
| UUCCAGCAAUAUUACGCCGG | -3.4 ± 0.33 | -2.98 ± 0.48 |
| ACUCAGCAAUAUUACGUCCA | -0.69 ± 0.084 | -1.36 ± 0.11 |
| UCCGAGCAAUAUUACGUUCU | -3.44 ± 0.29 | -2.62 ± 0.26 |
| UCUCAGCAAUAUUACGCUGG | -3.25 ± 0.2 | -2.67 ± 0.2 |
| UGCGAGCAAUAUUACGAUAU | – | -2.61 ± 0.36 |
| UGAGAGCAAUAUUACGAAAA | – | 0.153 ± 0.41 |
| UUGCAGCAAUAUUACGGCCA | -0.118 ± 0.16 | 0.347 ± 0.19 |
| CAACAGCAAUAUUACGCACU | -2.34 ± 0.14 | -0.357 ± 0.12 |
| GCCAAGCAAUAUUACGCAGC | -2.96 ± 0.2 | -2.53 ± 0.25 |
| AAACAGCAAUAUUACGCUCA | -0.43 ± 0.081 | 0.168 ± 0.1 |
| CAUCAGCAAUAUUACGUUCG | 0.13 ± 0.046 | -0.286 ± 0.063 |
| UGACAGCAAUAUUACGACUG | -0.341 ± 0.06 | 0.371 ± 0.091 |
| UUCUAGCAAUAUUACGCGUC | -3.14 ± 0.39 | -1.45 ± 0.25 |
| GGCGAGCAAUAUUACGGCGA | -0.138 ± 0.078 | -0.0802 ± 0.092 |
| AAUCAGCAAUAUUACGGUUC | -2.32 ± 0.11 | -1.91 ± 0.17 |
| GGGCAGCAAUAUUACGUCUG | -1.11 ± 0.22 | -1.04 ± 0.16 |
| UGCAAGCAAUAUUACGGUUC | -2.93 ± 0.19 | -1.92 ± 0.17 |
| GUGAAGCAAUAUUACGUCAG | -0.462 ± 0.076 | -0.996 ± 0.08 |
| UUUUAGCAAUAUUACGCUUA | -1.1 ± 0.16 | -0.69 ± 0.15 |
| UUACAGCAAUAUUACGCAAU | -1.23 ± 0.15 | -2.23 ± 0.4 |

| Sequence | self-splicing fitness (ln) (30 °C) | self-splicing fitness (ln) (37 °C) |
| --- | --- | --- |
| GCCGAGCAAUAUUACGGACU | -1.86 ± 0.2 | -0.863 ± 0.15 |
| AGAAAGCAAUAUUACGUUGU | -4.11 ± 0.14 | -1.88 ± 0.099 |
| UGGAAGCAAUAUUACGAUGG | -2.38 ± 0.14 | -0.0527 ± 0.12 |
| CCCGAGCAAUAUUACGAAGC | -3.12 ± 0.26 | – |
| UCACAGCAAUAUUACGGUUG | -1.41 ± 0.087 | -0.981 ± 0.11 |
| UGGGAGCAAUAUUACGACGU | -2.93 ± 0.22 | -2.37 ± 0.29 |
| UUCAAGCAAUAUUACGAUUU | -3.24 ± 0.21 | -1.12 ± 0.17 |
| GGACAGCAAUAUUACGAUUG | -1.09 ± 0.12 | -1.15 ± 0.19 |
| GCGAAGCAAUAUUACGGCAG | -1.93 ± 0.21 | -2.92 ± 0.38 |
| CUAAAGCAAUAUUACGUUGA | -4.09 ± 0.23 | -2.6 ± 0.29 |
| GAAAAGCAAUAUUACGGCCU | -0.569 ± 0.12 | 0.296 ± 0.14 |
| GCGGAGCAAUAUUACGGAGU | -2.51 ± 0.33 | -2.1 ± 0.29 |
| CCUAAGCAAUAUUACGUAUC | -3.83 ± 0.32 | -2.33 ± 0.26 |
| GCUCAGCAAUAUUACGUUGC | -1.99 ± 0.17 | -1.27 ± 0.16 |
| CGGCAGCAAUAUUACGUACC | -2.07 ± 0.19 | -1.61 ± 0.25 |
| GCUUAGCAAUAUUACGUGCC | -3.64 ± 0.35 | -0.354 ± 0.14 |
| AUUCAGCAAUAUUACGCCAA | -2.22 ± 0.29 | -1.19 ± 0.27 |
| CUCUAGCAAUAUUACGAAUU | -3.81 ± 0.29 | -3.19 ± 0.4 |
| UCUCAGCAAUAUUACGCUCG | -3.93 ± 0.25 | -2 ± 0.19 |
| AUGCAGCAAUAUUACGCGUC | -3.6 ± 0.2 | -3.05 ± 0.16 |
| AGUGAGCAAUAUUACGUACA | -1.72 ± 0.28 | -0.682 ± 0.36 |
| GUCAAGCAAUAUUACGGAGC | -2.47 ± 0.46 | – |
| UAGAAGCAAUAUUACGCACU | -0.642 ± 0.15 | -0.846 ± 0.17 |
| AAUUAGCAAUAUUACGACAA | -1.79 ± 0.21 | 0.209 ± 0.24 |
| AGAGAGCAAUAUUACGACCG | -2.92 ± 0.4 | – |
| UUACAGCAAUAUUACGCACG | -1.13 ± 0.12 | 0.579 ± 0.13 |
